Test results published in patent US20260184780A1 (MONASH UNIVERSITY, published 2026).

How the values were obtained:
[1] = molecular target: T1, human PAR4 on isolated human platelets (human, UniProt Q96RI0 18-385); assay: flow cytometry on isolated human platelets
T1 construct: Endogenous receptor of donor platelets; donors carry Ala120 and/or Thr120; also called PAR4 on human platelets
T1 sequence: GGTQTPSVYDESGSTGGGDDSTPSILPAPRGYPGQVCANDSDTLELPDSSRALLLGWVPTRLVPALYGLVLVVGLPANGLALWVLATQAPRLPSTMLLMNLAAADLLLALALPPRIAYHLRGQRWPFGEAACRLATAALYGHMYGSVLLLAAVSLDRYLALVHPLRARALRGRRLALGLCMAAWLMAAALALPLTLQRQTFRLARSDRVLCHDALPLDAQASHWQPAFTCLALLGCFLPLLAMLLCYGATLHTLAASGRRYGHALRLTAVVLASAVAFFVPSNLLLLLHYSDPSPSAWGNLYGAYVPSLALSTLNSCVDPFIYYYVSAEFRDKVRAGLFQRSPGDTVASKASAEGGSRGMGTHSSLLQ

hPAR1 (Biotin) peptide [2] = molecular target: T2, hPAR1 (Biotin) peptide (human, not fully specified; biotin on the C-terminal lysine (SKB)); assay: ELISA, biotinylated peptide on streptavidin plate, absorbance 405 nm
T2 construct: also called PAR1 peptide; PAR1 screening peptide
T2 peptide: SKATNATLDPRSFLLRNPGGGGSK
Method: (§1) Biotinylated peptides (hPAR1-4) were diluted in Wash buffer and allowed to bind to the blocked Streptavidin coated wells at 10 ug/ml (100 ul per well) for 1 hour at room temperature with gentle mixing. Wells were washed 3 times as above and purified anti-hPAR4 mAbs prepared at 10 ug/ml in Wash buffer were allowed to bind (100 ul/well) for 1 hour at room temperature with gentle mixing. The plate was washed 3 times as above and anti-mouse Fc conjugated to Alkaline phosphatase (AP) at 0.3 ug/ml (100 ul) was added to the wells for 1 hour as above. Wells were washed 3 times as above and developed with Alkaline Phosphatase substrate as described for the screening supernatant ELISA.
(§2) To further characterise the purified anti-hPAR4 mAb's the specificity of the mAbs to hPAR1, hPAR2, hPAR3 and hPAR4 biotinylated peptides was performed.

hPAR2 (Biotin) peptide = molecular target: T3, hPAR2 (Biotin) peptide (human, not fully specified; biotin on the C-terminal lysine (SKB)); assay: as above
T3 construct: also called PAR2 peptide; PAR2 screening peptide
T3 peptide: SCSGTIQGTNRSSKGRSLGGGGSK
Method: as §1, §2

hPAR3 (Biotin) peptide [3] = molecular target: T4, hPAR3 (Biotin) peptide (human, biotin on the C-terminal lysine (SKB)); assay: as above
T4 construct: also called PAR3 peptide; PAR3 screening peptide
T4 peptide: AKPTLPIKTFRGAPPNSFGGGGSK
Method: as §1, §2

hPAR4 1-9 peptide = molecular target: T5, hPAR4 1-9 peptide (human); assay: ELISA, peptide coated on the plate, purified mAb, background subtracted
T5 construct: Range counted on the hPAR4 immunising peptide; also called peptide 1-9
T5 peptide: GDDSTPSIL
Method: (§3) Briefly the peptides were coated onto a Nunc maxisorp ELISA plate at 10 ug/ml overnight in coating buffer (0.1 M sodium carbonate pH8.0). Purified mAbs diluted in PBS were used in place of supernatant.

hPAR4 11-20 peptide = molecular target: T6, hPAR4 11-20 peptide (human); assay: as above
T6 construct: Range counted on the hPAR4 immunising peptide; the C-terminal cysteine was removed, so nine residues are given; also called peptide 11-20
T6 peptide: APRGYPGQV
Method: as §3

[4] = molecular target: T1, human PAR4 on isolated human platelets; assay: cell-based or functional assay
hPAR4 (naked) peptide [5] = molecular target: T7, hPAR4 (naked) peptide (human); assay: ELISA, hybridoma supernatant
T7 construct: also called native PAR4 peptide; hPAR4 peptide
T7 peptide: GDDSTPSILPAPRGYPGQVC

hPAR1 (Biotin) peptide [6] = molecular target: T2, hPAR1 (Biotin) peptide; assay: ELISA, hybridoma supernatant
hPAR3 (Biotin) peptide [7] = molecular target: T4, hPAR3 (Biotin) peptide; assay: ELISA, hybridoma supernatant
mPAR4 (naked) peptide = molecular target: T8, mPAR4 (naked) peptide (mouse); assay: ELISA, hybridoma supernatant
T8 construct: T0021 says only 'mouse PAR4'; also called mouse PAR4
T8 peptide: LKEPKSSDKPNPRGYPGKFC

hPAR4 (naked) peptide [8] = molecular target: T7, hPAR4 (naked) peptide; assay: ELISA, purified mAb on hPAR4 peptide
hPAR4 (Biotin) peptide = molecular target: T9, hPAR4 (Biotin) peptide (human, biotin on the C-terminal lysine (SKB)); assay: SPR Biacore T200, biotin peptide on SA chip, whole mAb as analyte
T9 construct: also called hPAR4-biotinylated peptide; biotin-coupled human PAR4 peptide
T9 peptide: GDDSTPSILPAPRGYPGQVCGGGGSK
Method: (§4) The kinetics of the binding interaction between the mAbs and hPAR4 was measured using Surface Plasmon Resonance (SPR; Biacore) by two different methods: 1. Anti-mouse Fc mAb capture method and 2. Streptavidin (SA) chip to capture biotinylated peptide. The ka(on) rate and kd(off) rates and KD were measured and fitted to a Langmuir model using the Biacore evaluation software.

hPAR4 (naked) peptide [9] = molecular target: T7, hPAR4 (naked) peptide; assay: SPR Biacore T200, mAb captured by anti-mouse Fc, hPAR4 peptide as analyte
Method: A series S CM5 sensor chip was activated with standard EDC/NHS amine coupling chemistry using the manufacturers recommended protocol with Goat anti-mouse IgG Fc. Anti-hPAR4 mAbs were captured at 1-2 ug/ml for 2 minutes at 10 ul/minute on flow cell 2 (FC2) and flow cell 1 (FC1) was used as a reference channel. […] Blank injections of buffer alone were also performed. All injections were performed in duplicate and in a random order.
as §4

Binder	GMFI at 10 ug/ml over isotype control [1]	binding result (hPAR1 (Biotin) peptide [2])	binding result (hPAR2 (Biotin) peptide)	binding result (hPAR3 (Biotin) peptide [3])	platelet aggregation, % of control [4]	fold binding native vs KLH-linked PAR4 peptide (hPAR4 (naked) peptide [5])	binding to PAR1 ratio (hPAR1 (Biotin) peptide [6])	binding to PAR3 ratio (hPAR3 (Biotin) peptide [7])	binding to mouse PAR4 ratio (mPAR4 (naked) peptide)	other results
5G.RA1.E10.G3 (antibody, IgG2a, V domains shown, also called MoB5G A1) VH: QVQLVESGGGVVQPGRSLRLSCAASGFTFSSYGMHWVRQAPGKGLEWVAVIWYDGSNKYYADSVKGRFTISRDNSKNTLYLQMNSLRAEDTAVYYCARETALVRGVPFDYWGQGTLVTVSS VL: not shown	25	no binding (tested: 10 ug/ml)	no binding (tested: 10 ug/ml)	no binding (tested: 10 ug/ml)						binding result (hPAR4 1-9 peptide): no binding; binding result (hPAR4 11-20 peptide): no binding
5G RD6.D1.E11b (antibody, IgG2a, V domains shown) VH: QVQLVESGGGVVQPGRSLRLSCAASGFAFSSYGMHWVRQAPGKGLEWVAVIWYDGSNRYYADSVKGRFTISRDTSKNTLFLQMNSLRAEDTAVYYCARETAMVRGVPFDYWGQGTLVTVSS VL: not shown					> 80 % of control					
5G RG1.D3.C2b (antibody, IgG1, V domains shown, also called MoB5G G1) VH: QVQLVESGGGVVQPGRSLRLSCVASGFTLSSYGMHWVRQAPGKGLEWVAVIWYDGSSKYYTDSVKGRFDISRDNSKNTLYLQMNILRAEDTAVYYCARETILIGGVPFDYWGQGTLVTVSS VL: EIVLTQSPGTLSLSPGERATLSCGASQSIRSNYLAWYQQKPGQAPRLLIYGASSRATGTPDRFSGSGSGTDFTLTITRLEPEDFALYYCQQYGRSYTFGQGTKLEIK					< 25 % of control	11.1 fold	1.1 ratio	0.8 ratio	8.6 ratio	
5H RG4.H7b.F5b (antibody, IgG2a, V domains shown) VH: QVQLVQSGAEVKKPGASVKVSCKASGYTFTGHYFHWVRQAPGQGLEWMGWINPNSGGTNFAQRFQGRVTMTRVTSISTAYMELSGLRSDDTAVYYCARGYYDTSGYYYAFEFWGQGTLVIVSS VL: not shown					> 80 % of control					
5H.RA3.D3b.A2b (antibody, IgG2a, V domains shown, also called MoB5H A3) VH: QVQLVESGGGVVQPGRSLRVSCAASGFTFSSYGMLWVRQAPGKGLEWVAVIWYDGTKKYYADSLKGRFTISRDNSKYTLYLQMNSLRADDTALYFCARKGARGITGLDYWGQGTLVTVSS VL: not shown	100	no binding (tested: 10 ug/ml)	no binding (tested: 10 ug/ml)	no binding (tested: 10 ug/ml)	< 25 % of control					
5H.RF2.A5b.D3.C2 (antibody, IgG2a, V domains shown, also called MoB5H F2) VH: QVQLQQWGAGLLKPSETLALTCAVYGGSLSDYYWSWIRQPPGKGLEWIGEINHSGTTNYNPSLKSRVTISVDTSKKQFSLKLSSVTAADTAVYYCAIEYSNSRGYYYGMDVWGQGTTVTVSS VL: DIQMTQSPSSLSASAGDRITITCRASQTISNYLNWYQQKPGKAPKLLIYAASSLQSGVPSRFSGSGSGTDFTLTISSLQPEDFASYYCRQNYNTPLTFGGGTKVEIK		no binding (tested: 10 ug/ml)	no binding (tested: 10 ug/ml)	no binding (tested: 10 ug/ml)	> 80 % of control	11.9 fold	1 ratio	0.9 ratio	10.4 ratio	ELISA Pos:Neg ratio (hPAR4 (naked) peptide [8]): 8.5 ratio; Kd (hPAR4 (Biotin) peptide): 0.00061 µM; koff (hPAR4 (Biotin) peptide): 0.00111 s⁻¹; kon (hPAR4 (Biotin) peptide): 1.84e+06 M⁻¹ s⁻¹; Kd (hPAR4 (naked) peptide [9]): 0.038 µM; koff (hPAR4 (naked) peptide [9]): 0.00227 s⁻¹; kon (hPAR4 (naked) peptide [9]): 58400 M⁻¹ s⁻¹
5H.RD2.A7b (antibody, IgG1, V domains shown, also called MoB5H-RD2.A7b; MoB5H D2) VH: EVQLVESGGDLVKPGGSLRLSCSASGFTFFNTWMNWVRQAPGKGLEWVGRVKSKNDGGTKDYAAPVTGRFTISRDDSKDTLYLQMNSLKTEDTAVYYCTTDPHYDFWSAYWGQGTLVTVSS VL: not shown					> 80 % of control	6 fold	1 ratio	0.9 ratio	6.2 ratio	
5D.RH4.G7.E6.C7b.G7 (antibody, IgG2a, V domains shown, Human variable regions on mouse constant regions, IgG2a/K) VH: QIQLVESGGGVVQPGRSLRLSCAASGFTFSSDGMHWVRQAPGKGLEWVAVIWFDGRNKYYLDSVKGRFTISRDNSKNTLYLQMNSLRAEDTAVYYCARESSISTRPPFDYWGQGTLVTVSS VL: not shown	33	no binding (tested: 10 ug/ml)	no binding (tested: 10 ug/ml)	no binding (tested: 10 ug/ml)						binding result (hPAR4 1-9 peptide): no binding; binding result (hPAR4 11-20 peptide): no binding
5I.RG1.D6.C1b (antibody, IgG3, V domains shown, also called 51.RG1; MoB5I G1) VH: QVQLQQWGAGLLKPSETLSLACAISSGSFSTYFWRWIRQPPGKGLEWIGEIIHTGSTTYNPSLKSRVTISVDTSKNQLSLKLSSVTAADTAVYYCAFEYSSSGGYYYGMDVWGQGTTVTVSS VL: DIQMTQSPSSLSASVGDRVTITCRASQSISSYLNWYQQIPGKAPNLLIYAASSLRSGVPSRFSGSGSGTDFTLTISSLQPEDFATYYCQQTYSTPLTFGGGTKVEIK		no binding (tested: 10 ug/ml)	no binding (tested: 10 ug/ml)	no binding (tested: 10 ug/ml)		9.2 fold	1 ratio	1 ratio	9.4 ratio	ELISA Pos:Neg ratio (hPAR4 (naked) peptide [8]): 6.3 ratio; Kd (hPAR4 (Biotin) peptide): 0.00036 µM; koff (hPAR4 (Biotin) peptide): 0.000667 s⁻¹; kon (hPAR4 (Biotin) peptide): 1.85e+06 M⁻¹ s⁻¹; Kd (hPAR4 (naked) peptide [9]): 0.105 µM; koff (hPAR4 (naked) peptide [9]): 0.00146 s⁻¹; kon (hPAR4 (naked) peptide [9]): 14000 M⁻¹ s⁻¹
5F RE6.D3.E7 (antibody, IgG2a, V domains shown, also called MoB5F E6) VH: QVQLAESGGGVVQPGRSLRVSCAASGFTFSSYGMHWVRQAPGKGLEWVAVIWYDGTKKYYADSLKGRFTISRDNSKYTLYLQMNSLRADDTALYFCARKGARGITGLDYWGQGTLVTVSS VL: DIQMTQSPSSLSASAGDRITITCRASQSISNYLNWYQQKPGKAPKLLIYAASSLQSGVPSRFSGSGSGTDFTLTISSLQPEDFASYYCRQNYNTPLTFGGGTKVEIK						12 fold	1.1 ratio	0.8 ratio	12.2 ratio	
